Two molecules from paper PMC13174313 (bioRxiv, 2026) can be followed below.

What all share (test): ITC
On the technique in general: In ITC the heat of successive injections is recorded.

Test [1] has as its target TII: Tctex1 homodimer with two IC chains bound (D. melanogaster) (UniProt Q94524).
Test [2] addresses T1, D. melanogaster dynein light chain Tctex1 (D. melanogaster, UniProt Q94524 1-111).
T1 sequence: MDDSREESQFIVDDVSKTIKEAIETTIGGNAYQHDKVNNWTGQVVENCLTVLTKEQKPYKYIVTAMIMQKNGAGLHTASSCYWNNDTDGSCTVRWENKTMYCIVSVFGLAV

The target in test [3] is D. melanogaster dynein light chain LC8 (D. melanogaster, UniProt Q24117 1-89).
Chain of D. melanogaster dynein light chain LC8 (D. melanogaster, UniProt Q24117 1-89) (Q24117 whole entry): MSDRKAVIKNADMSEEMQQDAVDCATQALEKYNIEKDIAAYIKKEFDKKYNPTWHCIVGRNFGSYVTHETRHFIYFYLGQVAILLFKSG

In turn, “D. melanogaster dynein light chain LC8 (from UniProt Q24117 1-89) (natural protein)” had a dH (TII -> TIILII) in test [1] of -25.8 kcal/mol.

B1: D. melanogaster dynein intermediate chain ICTL (domain or fragment, UniProt Q24246 84-143, looked up)
chain: SNTQTPDASLQATVNGQSGGKKQPLNLSVYNVQATNIPPKETLVYTKQTQTTSTGGGNGD
Take B1: in test [2], the “dH, first IC on the Tctex1 dimer (TI)” value was -6.76 kcal/mol and the “dH, second IC on the Tctex1 dimer (TI to TII)” value is -4.97 kcal/mol. Also, in test [3], the “dH, first IC on the LC8 dimer (LI)” value is -14.8 kcal/mol and the “dH, second IC on the LC8 dimer (LI to LII)” value is -15.1 kcal/mol.
